Laboratory results published in patent US20240043489A1, “Cytokine Prodrugs Comprising a Cleavable Linker” (Trutino Biosciences Inc., priority 2020, published 2024).
Where “and” joins values, the source holds several entries; their conditions need not be identical. Equal values may be shown once. Entries after “also recorded” stand apart in the source; their conditions may differ.

Assays:
[1] = system: MC38 tumor; assay: Systemic IV injection in syngeneic MC38 colorectal cancer model; assay type: in vivo
Description: The objective of this study is to evaluate efficacy of Construct B in the MC38-bearing female C57BL/6 mice. For this study, C57BL/6 6-8 weeks old female mice (Jackson Labs) were subcutaneously inoculated with MC38 cells (10^6 cells/animal), and when the average tumor volume reached about 80 mm^3, animals were randomized into 2 groups based on tumor volumes (8 mice per treatment group). Animals were dosed according to the following study design:
Mice were dosed over a 21 day period then further observed for an additional week.

[2] = system: collagen; assay: IL-2 fusion protein collagen-agarose pulldown (immunoblot quantitation); assay type: binding
Description: To test binding to collagen, a pulldown assay using agarose cross-linked to collagen (Sigma) was performed. IL-2 fusion proteins were incubated with collagen-agarose or control agarose beads for 18-22 h at 4C with gentle rotation in 1% BSA/PBS-0.05% Tween 20. After washing, proteins bound to the beads were eluted by resuspending beads in SDS sample buffer (Life Technologies). Bound proteins were then separated by SDS-PAGE on 4-12% BisTris gradient gel followed by immunoblotting with goat anti-mouse IL-2 polyclonal antibody (AF-402-NA; R&D systems). Donkey Anti-goat RP-conjugated antibody was used for detection (Jackson Immuno Research, West Grove, PA) and the blot was developed using the SuperSignal West Femto Maximum sensitivity detection reagent (ThermoFisher) following the manufacturer's recommendations.

[3] = system: CT-26; assay: In vivo efficacy in CT-26 colorectal syngeneic model; parameters: species or system mice; conditions: CT-26, BALB/c, 20 mpk IV Q3D, D13
Description: For the efficacy studies, C57BL/6 or BALB/c mice were subcutaneously inoculated with malignant cells and when the average tumor volume reached on average 90 mm^3, animals were randomized into 2 groups based on tumor volumes (n=10 mice per treatment group). Mice were dosed intravenously every 3 days (Q3D) at 20 mg/kg. Tumors, body weights and clinical observations were measured/collected twice a week for the duration of the study. Tumor volume is shown in FIGS. 10A-D, 11A, 12A, and 13B-C. […] Liver and kidney enzyme results corresponding to FIGS. 11A and 12A are shown in FIGS. 11B-D and 12B-D, respectively.

[4] = system: CTLL-2 cells; assay: CTLL-2 proliferation assay (MTT); assay type: cell-based
Description: Recombinant MMP9 and/or MMP2 (R&D Systems) was first activated with p-aminophenylmercuric acetate and this activated protease or equivalent amount of activating solution without the protease was used to digest or mock digest the fusion protein for 1 hr, 2 hr, 4 hr and overnight (18-22 hr) at 37 C. Cleavage assays are set up in TCNB buffer: 50 mM Tris, 10 mM CaCl2), 150 mM NaCl, 0.05% Brij-35 (w/v), pH 7.5. Digested protein was aliquoted and stored at −80° C. prior to testing. Aliquots of digests were subsequently analyzed by SDS-PAGE followed by Western blotting to evaluate the extent of cleavage. Digests were also assessed in functional assays such as CTLL-2 proliferation and HEK-Blue Interleukin reporter assays. As shown in FIGS. 2A-E, essentially complete cleavage by MMP9 protease of the fusion proteins with functional site is seen after overnight incubation. In contrast, proteins containing a scrambled MMP cleavage site are not cut (FIG. 2E).
IL-2 activity was measured using either CTLL-2 cells (ATCC) or the reporter cell line HEK Blue IL2 (Invivogen, San Diego). In brief, for the CTLL-2 assay a titration of untreated and digested samples is added to 40 000 CTLL-2 cells per well in 100 ul medium in a 96-well plate and incubated at 37C in 5% CO2 for 18-22 hr. At the end of this period, 50ug/well Thiazolyl Blue Tetrazolium Bromide (MTT) (Sigma-Aldrich) was added and the plate was incubated for 5 hr at 37C in 5% CO2. Cells were lysed with 100 µl/well 10% SDS (Sigma) acidified with HCl, incubated at 37C for 4 hr, and absorbance was read at 570 nm. Recombinant human or mouse IL-2 (Peprotech and R&D systems respectively) was used as a positive control. FIGS. 3A-B, 3K-L and 3N-P show examples of untreated and digested fusion proteins evaluated in CTLL-2 proliferation assay.

[5] = system: heparin; assay: IL-2 fusion protein plate binding assay to Heparin-BSA conjugate
Description: 96-well plates were coated with 25 ug/mL of Heparin-BSA conjugate (provided by Dr. Mueller, Boerhinger Ingelheim) or control BSA for 18-22 h at room temperature on shaker (350 rpm). After washing, wells are blocked with PBS-0.05% Tween 20/1% BSA for 90 min, then fusion proteins are titrated in 1% BSA/PBS-0.05% Tween 20 pH 7.5 and/or pH 6 and added for 2 hr at room temperature with shaking. After washing, an anti-mouse IL-2 biotin-labelled detection antibody (JES6-5H4, ThermoFisher) is added and binding is detected using Ultra Strepavidin HIRP (ThermoFisher). The plate was developed by adding the chromogenic tetramethylbenzidine substrate (Ultra TMB, ThermoFisher). The reaction is stopped by addition of 0.5M H2SO4 and the absorbance is read at 450-650 nm.

[6] = system: B16F10 melanoma; assay: In vivo efficacy of retention linker IL-2 drugs in B16F10 syngeneic model (Example 17); parameters: species or system mice
Description: (§1) In a first efficacy study, C57BL/6 mice were subcutaneously inoculated with B16F10 melanoma cells and when the average tumor volume reached on average 70-90 mm^3, animals were randomized into 5 groups based on tumor volumes (n=6 mice per treatment group). Mice were dosed intravenously every 3 days (Q3D) for a total of 5 doses according to following design:
as §1, with “second” for “first”, “study in the same model,” for “study,”
On Day 20, mice received an additional dose of drug, animals were sacrificed 24 hrs later and tissues and blood (processed to serum) were collected and stored at −80C for further testing. […] This is most likely due to the higher levels of both circulating drugs in serum and resident drug in TME, which can exert prolonged anti-tumor activity even after an extended dosing holiday.

B1: Construct B: SEQ ID NO 101: m IL2-2x(SG4)-MMPcs1-2x(G4S)-IL2Ralpha-mIgG1 Fc (protein)
chain: APTSSSTSSSTAEAQQQQQQQQQQQQHLEQLLMDLQELLSRMENYRNLKLPRMLTFKFYLPKQATELKDLQCLEDELGPLRHVLDLTQSKSFQLEDAENFISNIRVTVVKLKGSDNTFECQFDDESATVVDFLRRWIAFCQSIISTSPQSGGGGSGGGGGPLGVRGGGGGSGGGGSELCLYDPPEVPNATFKALSYKNGTILNCECKRGFRRLKELVYMRCLGNSWSSNCQCTSNSHDKSRKQVTAQLEHQKEQQTTTDMQKPTQSMHQENLTGHCREPPPWKHEDSKRIYHFVEGQSVHYECIPGYKALQRGPAISICKMKCGKTGWTQPQLTCVDEREHHRFLASEESQGSRNSSPESETSCPITTTDFPQPTETTAMTETFVLTMEYKGCKPCICTVPEVSSVFIFPPKPKDVLTITLTPKVTCVVVDISKDDPEVQFSWFVDDVEVHTAQTQPREEQFNSTFRSVSELPIMHQDWLNGKEFKCRVNSAAFPAPIEKTISKTKGRPKAPQVYTIPPPKEQMAKDKVSLTCMITDFFPEDITVEWQWNGQPAENYKNTQPIMDTDGSYFVYSKLNVQKSNWEAGNTFTCSVLHEGLHNHHTEKSLSHSPGK
Question: B1 was tested. Which “adverse effect / systemic toxicity” value ([1]; 10 mpk IV Q3D for 21 D) did it give?
Answer: The value was “Essentially no systemic toxicity; also recorded: no adverse effect”.

Question: What about the “mouse body weight during treatment” value ([1]; 10 mpk IV Q3D for 21 D) of the same molecule?
Answer: Its value is “substantially constant”.

Question: What about the “tumor growth (qualitative)” value ([1]; IV Q3D, eight administrations, vs vehicle) of the same molecule?
Answer: Its value is “virtually no tumor growth after initiation of treatment”.

Question: What about the “inhibition of tumor growth / Max TGI %” value ([1]; MC-38, C57BL/6, 10 mpk IV Q3D, Day 21) of the same molecule?
Answer: Its value is 92%.

Question: And the “complete tumor regressions ('cures')” value ([1]; out of 8 cases, 10 mpk IV Q3D for 21 D)?
Answer: Its value is 3.

Question: And the Bound ([2]; blot quantitation, collagen-agarose bound fraction)?
Answer: Its Bound is 2306.

Question: What about the Normalized ([2]; bound fraction relative to Construct B (fold)) of the same molecule?
Answer: The Normalized was 1.

Question: What about the “Bound (% input)” value ([2]; fraction bound to collagen-agarose) of the same molecule?
Answer: Its value is 0.3%.

Question: What about the “Max TGI %” value [3] of the same molecule?
Answer: Its value is 46%.

Question: And the “CTLL-2 cell proliferation, MMP-9 treated construct” value ([4]; cleaved by MMP-9)?
Answer: Its value is “stimulates CTLL-2 cell proliferation in a dose dependent manner”.

Question: And the “CTLL-2 cell proliferation, uncleaved construct” value ([4]; uncleaved)?
Answer: The value was “minimally stimulatory”.

Question: What about the “heparin binding EC50 relative to Construct CC” value ([5]; fold higher EC50 value) of the same molecule?
Answer: Its value is > 100 fold.

Question: And the “heparin binding (qualitative)” value ([5]; pH 6 vs pH 7.5, plate assay)?
Answer: The value was “much weaker”.

Question: What about the “TGI (%) D 15” value ([6]; 10 mg/kg IV Q3D, 5 doses) of the same molecule?
Answer: Its value is 27% and 27.43%.

Question: And the “efficacy after a dosing holiday of 7 days” value ([6]; 10 mg/kg, Day 20)?
Answer: Its value is “diminished efficacy”.

Question: What about the “TGI (%) D 20” value ([6]; 10 mg/kg, 7 days following the fifth dose) of the same molecule?
Answer: Its value is 14.02%.

Question: What about the “TGI (%) D 13” value ([6]; 20 mg/kg IV Q3D, 5 doses) of the same molecule?
Answer: The value was 61% and 61.43%.

Question: And the “TGI (%) D 13” value ([6]; 40 mg/kg IV Q3D, 5 doses)?
Answer: The value was 58.44%.

Question: What about the TGI ([6]; Construct B treated groups regardless of dose (20 and 40 mg/kg)) of the same molecule?
Answer: The TGI was ~60%.
